Values quoted from earlier work, collected in PMC2818086.

Tested on: His64
Assay: kinetics
Settings: 25 °C; free enzyme in solution during catalysis (zinc-loaded)

| Substance | pKa |
| --- | --- |
| Carbonic anhydrase II (HCA II) N62A (Homo sapiens; N62A) | 6.2 |
| Carbonic anhydrase II (HCA II) N62D (Homo sapiens; N62D) | 8.4 |
| Carbonic anhydrase II (HCA II) N62L (Homo sapiens; N62L) | 6.0 |
| Carbonic anhydrase II (HCA II) N62T (Homo sapiens; N62T) | 7.0 |
| Carbonic anhydrase II (HCA II) N62V (Homo sapiens; N62V) | 5.9 |
| Carbonic anhydrase II (HCA II) N67L (Homo sapiens; N67L) | 7.5 |
| Carbonic anhydrase II (HCA II) Y7F (Homo sapiens; Y7F) | 6.0 |
| Carbonic anhydrase II (HCA II), wild type (Homo sapiens) | 7.2 |
